Assay results reported in publication PMC6367419 (Nature Communications, 2019).

B1: EscN^29–446 (EPEC type III secretion system ATPase EscN, residues 29–446) (enzyme)
chain: NSSTRYEGKIINIGGTIIKARLPKARIGAFYKIEPSQRLAEVIAIDEDEVFLLPFEHVSGMYCGQWLSYQGDEFKIRVGDALLGRLIDGIGRPMESNIVAPYLPFERSLYAEPPDPLLRQVIDQPFILGVRAIDGLLTCGIGQRIGIFAGSGVGKSTLLGMICNGASADIIVLALIGERGREVNEFLALLPQSTLSKCVLVVTTSDRPALERMKAAFTATTIAEYFRDQGKNVLLMMDSVTRYARAARDVGLASGEPDVRGGFPPSVFSSLPKLLERAGPAPKGSITAIYTVLLESDNVNDPIGDEVRSILDGHIVLTRELAEENHFPAIDIGLSASRVMHNVVTSEHLRAAAECKKLIATYKNVELLIRIGEYTMGQDPEADKAIKNRKLIQNFIQQSTKDISSYEKTIESLFKVVA
notes: also called T3SS ATPase; chains NA to NF; source: E. coli BL21 (λDE3), purified (HisTrap HP, thrombin cleavage, second HisTrap HP, desalting)

What was measured:
[1] = target: T1, EscN-EscO complex (EscN^29–446 with EscO^1–125) (Escherichia coli, UniProt B7UMA6); settings: 3 mM ATP, 500 nM EscN, EscO 1:1 molar, 37 °C; pre-incubated with Mg2+ADP-AlF3, diluted out before assay
[2] = target: T1, EscN-EscO complex (EscN^29–446 with EscO^1–125); assay: cryo-EM structure, […] Å; type: binding; set-up: EscN residues 29-446 plus full-length EscO (125 residues); N-terminal 6His tags cleaved with thrombin (tag residue 0 left on EscO); E. coli BL21(DE3); 6:1 complex; with Type III secretion system central stalk protein EscO; settings: bound as transition state analogue Mg2+ADP-AlF3; pH 7.5; catalytic inter-subunit sites (four of six)
[3] = target: EscN^29–446 (EPEC type III secretion system ATPase EscN, residues 29–446) (enteropathogenic Escherichia coli (EPEC) O127:H6 E2348/69) (UniProt B7UMA6)
cryo-EM structure = target: the molecule itself; assay: cryo-EM structure
[4] = target: B1; assay: cryo-EM structure; settings: both partners purified

## Nc1ncnc2c1ncn2[C@@H]1O[C@H](COP(=O)(O)OP(=O)(O)OP(=O)(O)O)[C@@H](O)[C@H]1O [ATP]
[1]
  EnzChek phosphate release ATPase assay: found to further enhance EscN oligomerization and ATPase activity

## Nc1ncnc2c1ncn2[C@@H]1O[C@H](COP(=O)(O)OP(=O)(O)O)[C@@H](O)[C@H]1O [ADP]
[2]
  cryo-EM structure, 3.29 Å: Sample density of the class two catalytic site ligands ADP, AlF3 (grey and cyan)

## EscO^1–125 Lys110Glu/Lys114Glu (natural protein)
[3]
  decrease in catalytic rate of EscN ATPase (EnzChek) with the EscO mutant against wild-type EscO: 50%

## B1
cryo-EM structure
  stoichiometry N: 6

B2: EscO^1–125 (full-length EPEC central stalk protein EscO) (natural protein)
chain: MLDRILSIRKSRANRLRESMAKINSQIKEVDGKLDDCEQAIKESIASKQAYCASLVNLDKVSLYKYQIKNNAFDEQKQRLYEKKSSLSKEKRSLLDSQKRTKEDLQHVNKSIEKLSFAIKEHYFD
notes: source: E. coli BL21 (λDE3), purified (HisTrap HP, thrombin cleavage, second HisTrap HP, desalting)
[4]
  stoichiometry N: 1 EscO per EscN hexamer
